Measurements as given in article PMC8615163.

B1: Milk fat globule-EGF factor 8 (MFG-E8) (natural protein)
chain: LDICSKNPCHNGGLCEEISQEVRGDVFPSYTCTCLKGYAGNHCETKCVEPLGLENGNIANSQIAASSVRVTFLGLQHWVPELARLNRAGMVNAWTPSSNDDNPWIQVNLLRRMWVTGVVTQGASRLASHEYLKAFKVAYSLNGHEFDFIHDVNKKHKEFVGNWNKNAVHVNLFETPVEAQYVRLYPTSCHTACTLRFELLGCELNGCANPLGLKNNSIPDKQITASSSYKTWGLHLFSWNPSYARLDKQGNFNAWVAGSYGNDQWLQVDLGSSKEVTGIITQGARNFGSVQFVASYKVAYSNDSANWTEYQDPRTGSSKIFPGNWDNHSHKKNLFETPILARYVRILPVAWHNRIALRLELLGC

Key:
[1] = biological target: HIS-tagged integrin αvβ3 (ACRO Biosystems IT3-H52E3) (UniProt P06756); experiment: radioligand binding; 125I-labeled NP-011 (0–100 μg/mL) incubated in plates coated with HIS-tagged integrin; 50 mM Tris, 5 mM MgCl2, 100 mM NaCl, 1% BSA, pH 7.4; Kd by nonlinear curve fitting (Prism); done by Gifford Bioscience
[2] = biological target: HIS-tagged integrin αvβ5 (ACRO Biosystems IT5-H52W5) (UniProt P06756); experiment: as above
[3] = biological target: HIS-tagged integrin αvβ5 (ACRO Biosystems IT5-H52W5) (UniProt P06756); experiment: radioligand binding; binding affinity assay of MFG-E8 to integrin αVβ5 (Supplementary Figure S2); told with the radioligand binding assays, its own methods not shown

| Molecule | Kd [1] [nM] | Kd [2] [nM] | Kd [3] [nM] |
| --- | --- | --- | --- |
| NP-011 (truncated form of MFG-E8, EGF + C1 domain) (from UniProt Q08431 24-387) (domain or fragment) | 50.4 | 2 | – |
| B1 | – | – | 25.4 |
